Target: SARS-CoV-2 spike (6P) (SARS-CoV-2, Wuhan-Hu-1 reference, UniProt P0DTC2, stabilised)
Assay: cryo-EM structure

B1: Ab16 Fab (Fab, V domains shown)
VH: EVQLQQSGPELVKPGASVKISCKASGYSFNNYYMNWVKQSPEKSLEWIGEINPNSGYTSYNQKFRAKATLTVDKSSTTAYMQLKSLTSEDSAVYYCARYFGNLFAMDFWGQGTSVTVS
VL: DILMTQSPSSMSVSLGDTVSITCHASQGIGSNIGWLQQKPGKSFKGLIYLGTNLEDGVPSRFSGSGSGADYSLTISSLESEDFADYYCVQYVQFPYTFGGGTKLEIK
binding result: binds
